Source: patent publication US20080274977A1

Key:
[1] = target: N-type calcium channel (receptor binding screen of Example 1)
[2] = target: T1, chemokine CXCR2 (IL-8Rb), P25025
T1 chain: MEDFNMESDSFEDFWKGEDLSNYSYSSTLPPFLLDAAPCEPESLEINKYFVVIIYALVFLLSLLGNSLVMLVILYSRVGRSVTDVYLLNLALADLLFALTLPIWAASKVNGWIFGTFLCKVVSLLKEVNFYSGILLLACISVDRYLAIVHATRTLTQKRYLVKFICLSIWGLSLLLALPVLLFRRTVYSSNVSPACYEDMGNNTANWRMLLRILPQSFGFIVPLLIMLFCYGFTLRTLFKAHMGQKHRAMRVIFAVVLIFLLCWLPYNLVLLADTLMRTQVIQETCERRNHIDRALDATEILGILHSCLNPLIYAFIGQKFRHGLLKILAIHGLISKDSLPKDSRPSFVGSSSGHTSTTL

## Tat-NR2B9c (peptide)
[1]
  % inhibition: 100%

## YGRKKRRQRRRKLSSIESDV (modifications not checked) [Tat-NR2B9c]
[2]
  % inhibition: 80%
